B1: SufS, cysteine desulfurase of the SUF system (enzyme, E. coli, UniProt P77444 1-406, looked up)
chain: MIFSVDKVRADFPVLSREVNGLPLAYLDSAASAQKPSQVIDAEAEFYRHGYAAVHRGIHTLSAQATEKMENVRKRASLFINARSAEELVFVRGTTEGINLVANSWGNSNVRAGDNIIISQMEHHANIVPWQMLCARVGAELRVIPLNPDGTLQLETLPTLFDEKTRLLAITHVSNVLGTENPLAEMITLAHQHGAKVLVDGAQAVMHHPVDVQALDCDFYVFSGHKLYGPTGIGILYVKEALLQEMPPWEGGGSMIATVSLSEGTTWTKAPWRFEAGTPNTGGIIGLGAALEYVSALGLNNIAEYEQNLMHYALSQLESVPDLTLYGPQNRLGVIAFNLGKHHAYDVGSFLDNYGIAVRTGHHCAMPLMAYYNVPAMCRASLAMYNTHEEVDRLVTGLQRIHRLLG
notes: SufS, L-cysteine desulfurase of E. coli; Seen by native MS as a dimer with associated PLP cofactors (89 956 Da; predicted 89 892 Da + (S0)2); Surmise: the predicted mass is larger than two natural chains plus two PLP, so a few residues may be left on each chain after thrombin cleavage; also called (SufS)2; dimeric SufS; source: E. coli BL21 DE3, plasmid pSL213, purified, (His)6-tag cleaved with …
B2: CyaY, the frataxin homolog of Escherichia coli (natural protein, E. coli, UniProt P27838 1-106, looked up)
chain: MNDSEFHRLADQLWLTIEERLDDWDGDSDIDCEINGGVLTITFENGSKIIINRQEPLHQVWLATKQGGYHFDLKGDEWICDRSGETFWDLLEQAATQQAGETVSFR
notes: CyaY, frataxin homolog of E. coli; Two plasmids are named (pET15b or pMB10); also called CyaY-(His)6; source: E. coli BL21 DE3, plasmid pET15b or pMB10, purified, (His)6-tag cleaved with thrombin
B3: SufE (natural protein, E. coli, UniProt P76194 1-138, looked up)
chain: MALLPDKEKLLRNFLRCANWEEKYLYIIELGQRLPELRDEDRSPQNSIQGCQSQVWIVMRQNAQGIIELQGDSDAAIVKGLIAVVFILYDQMTPQDIVNFDVRPWFEKMALTQHLTPSRSQGLEAMIRAIRAKAAALS
notes: SufE, sulfur acceptor of SufS, E. coli; Tag cleavage is told only of SufS and CyaY; Surmise: the printed mass interval of ~16.7 kDa for each SufE is larger than the natural chain, so the tag may have been kept; also called SufE-(His)6; source: E. coli BL21 DE3, plasmid pET15b, purified (previously published procedures)

Columns and labels:
[1] = target: the molecule itself; assay: native MS; desulfurase alone, ~8 uM (~4 uM dimer), 250 mM ammonium acetate pH 8.0, deconvoluted spectrum
[2] = target: T1, SufSE complex (SufS dimer with bound SufE), formed before CyaY was added (E. coli, UniProt P77444 1-406; P76194 1-138); assay: native MS; pre-formed SufSE complexes treated with a 4-fold excess of CyaY and titrated with CyaY up to about 35 uM; 250 mM ammonium acetate pH 8; only the first part of the titration measured, Kd an approximation; details: both partners purified
T1 construct: SufS, L-cysteine desulfurase of E. coli, as the chain of m4; SufE of E. coli, as the chain of m5; A mixture of complexes: mainly one or two SufE on each SufS dimer, with some (SufE)3(SufS)2 before CyaY was added; In the activity assay 30 uM SufS plus 90 uM SufE; also called SufE–SufS complexes; SufS/SufE; source: mixed from SufS and SufE, each purified from E. coli BL21 DE3; copies: 2 +
T1 sequence (looked up) 1: B1 chain
T1 sequence (looked up) 2: B3 chain

[3] = target: T2, IscS, cysteine desulfurase of the ISC system (E. coli, UniProt P0A6B7 1-404); assay: native MS; IscS (8 uM, 4 uM dimer) pre-treated with 0.5 equivalents of TusA (4 uM), then titrated with CyaY; 250 mM ammonium acetate pH 8; relative intensities fitted to a simple competition binding model (Dynafit); details: both partners purified
T2 construct: IscS, L-cysteine desulfurase of E. coli; Seen by native MS as a dimer with associated PLP cofactors (90 662 Da; predicted 90 642 Da + Na); No tag is named for this construct; Surmise: the predicted mass fits two untagged whole chains plus two PLP; also called (IscS)2; dimeric IscS; source: E. coli BL21 DE3, plasmid pSL209, purified (previously published procedures)

[4] = target: B1; assay: native MS; SufS (~8 uM, ~4 uM dimer) titrated with SufE; 250 mM ammonium acetate pH 8; relative intensities fitted to a sequential binding model (Dynafit); details: both partners purified

With B1 the “stoichiometry N” value [1] was 2.

With B2 the Kd [2] was ~70 µM, the Kd [3] was ~26 µM and the “stoichiometry N” value [3] was ≤ 2 per IscS dimer.

For B3, the “Kd of the first and second SufE on the SufS dimer (high affinity site)” value [4] was ~8 µM, the “Kd of the third and fourth SufE on the SufS dimer (low affinity site)” value [4] was ~71 µM and the “stoichiometry N” value [4] was ≤ 4 per SufS dimer.

Source: paper PMC11446229, “CyaY and TusA regulate ISC- and SUF-mediated L-cysteine desulfurase activity†” (RSC Chemical Biology, 2024)
